Results on 14 molecules are retold here after patent publication US20210145976A1 (ARO BIOTHERAPEUTICS, published 2021).

In assay [1] the target is T1, recombinant biotinylated CD71 extracellular domain (Sino Biologics) with an N-terminal 6His tag (human, UniProt P02786 89-760, biotinylated (sites not given)).
T1 construct: extracellular domain; also called hCD71; huCD71
The experiment in a line: screening ELISA.

Assay [2] concerns the target T1, recombinant biotinylated CD71 …. Description: screening ELISA, ratio.

Substitutions are numbered along the chain they refer to.

T1 sequence (P02786 other isoform, or with tags, fused parts or gaps): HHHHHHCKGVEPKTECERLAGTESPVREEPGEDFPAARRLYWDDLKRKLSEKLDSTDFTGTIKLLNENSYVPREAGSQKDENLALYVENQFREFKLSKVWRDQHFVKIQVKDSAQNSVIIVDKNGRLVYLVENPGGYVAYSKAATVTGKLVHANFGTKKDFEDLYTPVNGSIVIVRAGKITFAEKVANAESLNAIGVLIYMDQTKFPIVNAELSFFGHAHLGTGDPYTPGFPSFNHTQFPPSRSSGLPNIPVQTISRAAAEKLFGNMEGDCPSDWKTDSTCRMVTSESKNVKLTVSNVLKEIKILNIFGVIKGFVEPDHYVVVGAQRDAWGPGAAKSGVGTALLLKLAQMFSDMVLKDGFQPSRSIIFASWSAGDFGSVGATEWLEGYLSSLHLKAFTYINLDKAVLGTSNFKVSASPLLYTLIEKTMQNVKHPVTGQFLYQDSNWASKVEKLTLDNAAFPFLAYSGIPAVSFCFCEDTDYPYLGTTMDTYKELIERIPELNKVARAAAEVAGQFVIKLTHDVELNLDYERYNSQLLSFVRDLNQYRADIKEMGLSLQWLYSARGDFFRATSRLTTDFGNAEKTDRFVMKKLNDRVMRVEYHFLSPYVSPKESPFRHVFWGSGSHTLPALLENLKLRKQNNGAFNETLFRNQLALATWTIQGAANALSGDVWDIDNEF

B1: SEQ ID NO 160 (designed binder)
chain: MLPAPKNLVVSRVTEDSARLSWTAPDAAFDSFNIAYGEWRQHGEAIVLTVPGSERSYDLTGLKPGTEYDVFIDGVKGGNLSWPLSAIFTT
notes: FN3 domain
In the case of B1, the hCD71 in assay [1] stood at 2.76e+06. For the same molecule, the “hCD71:HSA” value in assay [2] stood at 836.

B2: SEQ ID NO 179 (designed binder)
chain: MLPAPKNLVVSRVTEDSARLSWTAPDAAFDSFYIAYAEPRPDGEAIVLTVPGSERSYDLTGLKPGTEYPVPIPGVKGGPGSSPLSAIFTT
notes: FN3 domain
As to B2, in assay [1], the hCD71 is 2.68e+06. In addition, in assay [2], the “hCD71:HSA” value amounted to 36.

B3: SEQ ID NO 176 (designed binder)
chain: B2 chain with Y33P, P69S, P71G, P73H, P79H, G80D
notes: FN3 domain
Regarding B3, in assay [1], the hCD71 was found to be 1.34e+06. In assay [2], the “hCD71:HSA” value turned out to be 129.

B4: SEQ ID NO 182 (designed binder)
chain: MLPAPKNLVVSRVTEDSARLSWTAPDAAFDSFFIGYLEPYPPGEAIVLTVPGSERSYDLTGLKPGTEYVVSIQGVKGGTPSQPLSAIFTT
notes: FN3 domain
With B4, in assay [1], the hCD71 came out at 3.12e+06. Also, the “hCD71:HSA” value in assay [2] amounted to 1060.

B5: SEQ ID NO 167 (designed binder)
chain: B4 chain with Y40Q, V69N, S71T, Q82E
notes: FN3 domain
Regarding B5, the hCD71 in assay [1] was determined as 2.62e+06. Also, the “hCD71:HSA” value in assay [2] was found to be 727.

B6: SEQ ID NO 177 (designed binder)
chain: B4 chain with Y40Q, V69N, S71T, T79R, P80A, Q82G
notes: FN3 domain
B6: in assay [1], the hCD71 was 2.61e+06. Moreover, the “hCD71:HSA” value in assay [2] is 1060.

B7: SEQ ID NO 165 (designed binder)
chain: MLPARKNLVVSRVTEDSARLSWTAPDAAFDSFFIPYAEPSPTGEAIVLTVPGSERSYDLTGLKPGTEYSVLIHGVKGGHLSDPLSAISTT
notes: FN3 domain
On to B7, for which the hCD71 in assay [1] came out at 2.64e+06. Also, in assay [2], the “hCD71:HSA” value came to 41.

B8: SEQ ID NO 170 (designed binder)
chain: MLPAPKNLVVSRVTEDSARLSWTAPDAAFDSFFIGYPEYPATGEAIVLTVPGSERSYDLTGLKPGTEYFVDINGVKGGSLSYPLSAIFTT
notes: FN3 domain
Regarding B8, the hCD71 in assay [1] was 982000. In addition, the “hCD71:HSA” value in assay [2] stood at 58.

B9: SEQ ID NO 181 (designed binder)
chain: B2 chain with R12H, Y33P, P69S, P71L, P73H, P79L, G80L
notes: FN3 domain
Regarding B9, the hCD71 in assay [1] was 2.95e+06. Moreover, the “hCD71:HSA” value in assay [2] came out at 491.

B10: SEQ ID NO 166 (designed binder)
chain: B1 chain with N33T, A35L, G37N, W39I, R40Q, Q41N, H42V, F71W, D73E, N79E
notes: FN3 domain
B10: the hCD71 in assay [1] worked out at 2.42e+06. Also, the “hCD71:HSA” value in assay [2] turned out to be 480.

B11: SEQ ID NO 169 (designed binder)
chain: B4 chain with Y40Q, V69N, S71T, T79F, Q82V
notes: FN3 domain
In the case of B11, the hCD71 in assay [1] was 2.85e+06. Also, the “hCD71:HSA” value in assay [2] is 1060.

B12: SEQ ID NO 175 (designed binder)
chain: B4 chain with Y40Q, V69S, S71V, T79F, Q82D
notes: FN3 domain
On to B12, for which the hCD71 in assay [1] turned out to be 3.55e+06. Besides, in assay [2], the “hCD71:HSA” value came out at 2220.

B13: SEQ ID NO 178 (designed binder)
chain: B2 chain with Y33D, R40I, D42R, P69S, P71L, P73H, P79R, G80R, S82V
notes: FN3 domain
Regarding B13, the hCD71 in assay [1] is 1.45e+06. Moreover, the “hCD71:HSA” value in assay [2] came out at 644.

B14: SEQ ID NO 180 (designed binder)
chain: MLPAPKNLVVSRVTEDSARLSWTAPDAAFDSFEISYYEMRGYGEAIVLTVPGSERSYDLTGLKPGTEYSVLIHGVEGGDYSSPLSAISTT
notes: FN3 domain
Turning to B14, the hCD71 in assay [1] was determined as 1.68e+06. The “hCD71:HSA” value in assay [2] came out at 50.
